The results in this text go back to patent US20160311863A1 (Affibody, published 2016).

Broadly, the koff is the rate constant with which the complex falls apart. The low end stands for a long-lived complex, the high end for a short-lived complex. Usually kon stands for a measure of how fast the partners come together. Read a high kon as fast association. One may read the Kd as the equilibrium constant for the complex coming apart. High values mean weaker binding, low ones tighter binding.

Starred links: 1 amine or outer side, 2 acyl side, 3 side chain; linkers in the order of their positions; H or OH if unused. Positions of bridges follow the written chain, without caps; N, C: chain ends. No end group written: not given here. mXylylene = c1cc(C[*:1])cc(C[*:2])c1; oXylylene = c1ccc(C[*:2])c(C[*:1])c1

Assay [1] concerns the target T1, human serum albumin (human, UniProt P02768 25-609).
T1 construct: Immobilized on the sensor chip (2500 RU in screening; 1100-1600 RU in kinetics); also called HSA
As to the kind of experiment: SPR (ProteOn XPR36), HSA immobilized, 1:1 Langmuir fit, triplicate. The procedure:
(§1) Biosensor binding analyses were performed on a ProteOn XPR36 instrument (Bio-Rad) at 25° C. using PBST (150 mM NaCl, 8 mM Na₂HPO₄, 2 mM NaH₂PO₄, 0.005% Tween20, pH 7.4) as running buffer at a flow rate of 50 μl min⁻¹. An injection of 30 μl of 20 mM HCl at a flow rate of 100 μl min⁻¹ was used for chip regeneration. In a screening experiment, the binding of all polypeptide variants to human serum albumin (HSA) was investigated. The proteins were diluted to 50 nM in running buffer and injected over a chip surface with 2500 RU of immobilized HSA. The association was studied for 300 s and the dissociation was followed for 7200 s (2 h). For data analysis, all samples were double referenced; the signal from a blank surface was first subtracted from the signal from the respective protein, and secondly the signal from an injection of PBST (running buffer) over the HSA surface was subtracted.
The HSA binding kinetics of PEP18049_CL and the reference protein PEP07830 were further studied using a sensor chip with HSA immobilized on three different surfaces to between 1100 RU and 1600 RU. The proteins were diluted in running buffer (0.8, 1.6, 3.3, and 6.6 nM for PEP18049_CL and 1.0, 2.0, 4.0 and 8.0 nM for PEP07830) and injected over the three HSA surfaces and thus giving binding curves in triplicate. The association time was 300 s and the dissociation was followed for 36 000 s (10 h).
(§2) The kinetic parameters of the binding of PEP18049_CL and the reference protein PEP07830 to HSA were obtained from fitting the obtained sensorgrams to a 1:1 Langmuir binding model using the ProteOn Manager software version 3.1.0.6 (Bio-Rad). The average association rate constant (kₐ (M⁻¹ s⁻¹) and dissociation rate constant (kd (s⁻¹)) with standard deviation were calculated. From the average kₐ and the kd the dissociation equilibrium constant (KD (M)) was calculated (KD=kd/kₐ).

In assay [2] the target is T1, human serum albumin. Briefly: SPR (ProteOn XPR36), HSA immobilized, KD=kd/ka. The procedure: as §1, with “subtracted. […]” for “subtracted.”
as §2

Assay [3] has as its target T1, human serum albumin. Briefly: SPR (ProteOn XPR36), polypeptide injected over immobilized HSA. The procedure:
as §1

The target in assay [4] is T1, human serum albumin. Briefly: SPR (ProteOn) screening, 50 nM over immobilized HSA. The procedure:
as §1

B1: PEP18049_CL (designed binder)
chain: LAEAKEAANAELDSYGCSDFYKRLIDKAKTVEGVEALKDAILAAKP
modifications: not fully specified; N-terminal leucine capped with acetic anhydride (acetylated); chloroacetylated Lys45 joined to the thiol of Cys17 by a thioether bond (intramolecular crosslink Cys17-Lys45); synthesised on Rink Amide resin
notes: also called crosslinked PEP18049
In assay [1], B1 displayed a koff of 1.5e-05 s⁻¹ and a kon of 620000 M⁻¹ s⁻¹. The affinity in assay [2], expressed as Kd, was 0.024 nM.

B2: PEP18050_CL (designed binder)
chain: LAEAKEAANAELDSYGVSDFYKRLIDKCKTVEGVEALKDAILAALP
modifications: not fully specified; chloroacetylated Lys5 joined to the thiol of Cys28 by a thioether bond (intramolecular crosslink Lys5-Cys28); synthesised on Rink Amide resin
notes: Control crosslinked variant; also called crosslinked PEP18050
With B2, the binding result in assay [3] is “no binding (tested: 50 nM)”.

B3: PEP18051_CL (designed binder)
chain: CAEAKEAANAELDSYGVSDFYKRLIDKAKTVEGVEALKDAILAALP
modifications: not fully specified; chloroacetylated Lys29 joined to the thiol of Cys1 by a thioether bond (intramolecular crosslink Cys1-Lys29); synthesised on Rink Amide resin
notes: Control crosslinked variant; also called crosslinked PEP18051
For B3, the binding result in assay [4] is given as “binds”.

B4: PEP14788_CL_A (designed binder)
chain: LAEAKEAANAELDSYGCSDFYKRLIDKAKTVEGVEALKDAILAACP-NH2
modifications: linker 17-45 via oXylylene
notes: Chemically synthesised Cys-Cys crosslinked variant; also called PEP14788 crosslinked with linker A (o-xylylene dibromide)
Consider B4, for which the binding result in assay [4] was “binds”.

B5: PEP18052_CL (designed binder)
chain: LAEAKEAANAELDSYGCSDFYKRLIDKCKTVEGVEALKDAILAAKP
modifications: not fully specified; two thioether crosslinks between chloroacetylated lysines and cysteines: Lys5-Cys28 and Cys17-Lys45; synthesised on Rink Amide resin
notes: Control, double crosslinked variant; the expected mass was found in two HPLC peaks that behaved alike; also called crosslinked PEP18052
Regarding B5, in assay [3], the binding result is listed as “no binding (tested: 50 nM)”.

B6: PEP07830 (designed binder)
chain: LAEAKEAANAELDSYGVSDFYKRLIDKAKTVEGVEALKDAILAALP-NH2
notes: Linear (non-crosslinked) control, made by solid phase peptide synthesis
With B6, in assay [1], the koff is 4.1e-06 s⁻¹ and the on-rate (kon) is 190000 M⁻¹ s⁻¹. In assay [2], the affinity, expressed as Kd, was 0.021 nM.

B7: PEP14788_CL_B (designed binder)
chain: LAEAKEAANAELDSYGCSDFYKRLIDKAKTVEGVEALKDAILAACP-NH2
modifications: linker 17-45 via mXylylene
notes: Chemically synthesised Cys-Cys crosslinked variant; also called PEP14788 crosslinked with linker B (m-xylylene dibromide)
Consider B7, for which the binding result in assay [4] is recorded as “binds”.

B8: PEP14788_CL_E (designed binder)
chain: LAEAKEAANAELDSYGCSDFYKRLIDKAKTVEGVEALKDAILAACP-NH2
modifications: linker 17-45 via 2,6‑bis(bromomethyl)pyridine
notes: Chemically synthesised Cys-Cys crosslinked variant; also called PEP14788 crosslinked with linker E (2,6-bis(bromomethyl)pyridine)
Consider B8, for which the binding result in assay [4] is given as “binds”.

B9: PEP14789_CL_A (designed binder)
chain: GSSLAEAKEAANAELDSYGCSDFYKRLIDKAKTVEGVEALKDAILAACP
modifications: linker 20-48 via oXylylene
notes: Recombinantly produced in E. coli; same as PEP14788 but with an N-terminal GSS (expressed with an MGSS extension); The crosslink positions are printed as Cys17-Cys45, probably counted without the GSS; also called PEP14789 crosslinked with linker A (o-xylylene dibromide)
Consider B9, for which, in assay [4], the binding result is recorded as “binds”.

B10: PEP14789_CL_B (designed binder)
chain: GSSLAEAKEAANAELDSYGCSDFYKRLIDKAKTVEGVEALKDAILAACP
modifications: linker 20-48 via mXylylene
notes: Recombinantly produced in E. coli; same as PEP14788 but with an N-terminal GSS (expressed with an MGSS extension); The crosslink positions are printed as Cys17-Cys45, probably counted without the GSS; also called PEP14789 crosslinked with linker B (m-xylylene dibromide)
As for B10, the binding result in assay [4] was “binds”.
